Measured values published in the DeepSol protein solubility set.

assay: soluble on expression in E. coli; label from the status in PepcDB or PDB records

Sequence | soluble on expression in E. coli
MDIKINDITLGNNSPFVLFGGICVLESLDSTLQTCAHYVEVTRKLGIPYIFKASFDKANRSSIHSYRGVGLEEGLKIFEKVKAEFGIPVITDVHEPHQCQPVAEVCDVIQLPAFLARQTDLVVAMAKTGNVVNIKKPQFLSPSQMKNIVEKFHEAGNGKLILCERGSSFGYDNLVVDMLGFGVMKQTCGNLPVIFDVTHSLQTRDAGSAASGGRRAQALDLALAGMATRLAGLFLESHPDPKLAKCEGASALPLHLLEDFLIRIKALDDLIKSQPILTIE | soluble
MHWGVGFASSRPCVVDLSWNQSISFFGWWAGSEEPFSFYGDIIAFPLQDYGGIMAGLGSDPWWKKTLYLTGGALLAAAAYLLHELLVIRKQQEIDSKDAIILHQFARPNNGVPSLSPFCLKMETYLRMADLPYQNYFGGKLSAQGKMPWIEYNHEKVSGTEFIIDFLEEKLGVNLNKNLGPHERAISRAVTKMVEEHFYWTLAYCQWVDNLNETRKMLSLSGGGPFSNLLRWVVCHITKGIVKREMHGHGIGRFSEEEIYMLMEKDMRSLAGLLGDKKYIMGPKLSTLDATVFGHLAQAMWTLPGTRPERLIKGELINLAMYCERIRRKFWPEWHHDDDNTIYESEESSEGSKTHTPLLDFSFYSRTETFEDEGAENSFSRTPDTDFTGHSLFDSDVDMDDYTDHEQCK | not soluble
MMFLNKVDKRKIALFQLLENAPMLTESKETVMQELELSEFIVNKTVAELNADFIEFGLSEDFQIVSDGIFLTLNESGTETSATLIDCYIKESLRFAMFQDFFFQRFDSVNEFALEHFVSHTLAYKEFKELKKMLENYQITINKEFHLVGNETNLREVTTLVFLQLYQRDFSLYGKKVLEQIRNFELFFSEKVHLNQRAGYAQAKCFHFLAVSLVRTQQQFYVEKKVDSQVLKQLAGDNQQNVFNWLESLQIPEPQRTNEGNYLLLFLIAEEWLQVASAALCQRFAEIQQLNRDLLSYLKIQFQLSEEVLQGFEQKVTIVHFKLFHFPIEANYSYLKMDITYFAETYTEYFSASRQFIQEQKTNPAVWDARRFLFYRYLLLMVDALPLKKVLAPITLCVDFSFGEAYNRMIQKNIEKITEWNIIFKAHVDESVQLILSDIHFVDWPEITQIIWLAPPRPVDWSHFIKTLSALRPHSGEEKKKSS | not soluble
MEYHSHTVVTERKVTLLEQGQASDLTDYVANEVRVALVYNGISHTVMLASPENLEEFAIGFTLSERIVSHVNEIKGVDLEFTPEGVLIQVEITQRCFMALKQLRRNMAGRTGCGLCGVAQLEEAVKPVIRVDSDARFNIDHLQFALEQVKDNQHHFKLTGATHAAMGLDLEGQIIAAYEDIGRHIALDKLIGGCSMRHAKRPVAVLLTSRASFEMVQKAASANIQILFAMSAVTSLALELAEKSNITLIGFCRNGRATLYTHGYRLLGLNRASLAKAIAAALEHHHHHH | not soluble
HVFVVDFNGSIDAKEVSSLREEVSAILSVAKPEDEVFVRLESGGGMVHGYGLASSQLDRIRQHNIPLTVSVDKVAASGGYMMACVANNIISAPFAILGSIGVIAQVPNFNKLLKKHDIDFEQFTAGEFKRTVTMFGENTEKGKEKFIEELEETHVLFKNFVSERRPSLDIVKVATGEHWFGTTALELGLVDSIQTSDD | not soluble
MAHHHHHHMLQINAFKLVRATPFLLKRTGKPADTPDYKQVYLPYDAAPTERELERERRRFKQAHHGRMEHRKLVEVKEVPLNVYTYGKEGMSLPIAIFKDQKDPVIGPEWTYPGIYENKIAAQHWYTEELFDKESKEAFESPWQQQILDNQVKRRMAKVMFRMRQVNMKAVDLFQKERGSSRRSGGAGE | not soluble
MGSDKIHHHHHHMEFPGVKALDDVHFSVKRGEIHALVGANGAGKSTLMKVLAGAYASYEGTILFDGVPLAIDSPNAAKRAGIEIVYQEVDTALVDYLTVAENICLDMLASGQLKGVIRRRRYEEIAERALQKLKASIDVRQRVSELRLAEKQLVLIARALVQESRFLILDEPTAPLSGRETEQLFRIIRELAEKEHLGVIFISHRLQELFEICESISVMRDGKMVSRQLLAGQTKETVVEQMLGRRLQKSSREARPAGAPSLELDRITVAGQLDEISLTVRAGEVIGIAGLVGAGKTELCKTIFGSIPVTSGLMRLAGETRRIRSAYDAVRLGIGLVPEERRKEGILVADPIEQNMTAASLKQFVNRFGFVEKKKERAAANRIVQQLSIKVSDTRQRAAELSGGNQQKVAIGKWLLADASVLVLDEPTKGVDVGAKAEIFQVIDQLAAEQKAVIYASSELDELLAVTDRIYVMYDGQIVFEATTSETTEEQLLWYATGGQQHE | not soluble
MGPVRFAPSILTADLARLGEAIREAEAAGVDWIHLDVMDGVFVPNLTFGPLLVEAVRRVTSLPLDVHLMIVKPERYLEDFAQAGADHITVHFEATYHPHRAVQKVKELGKKAGLAVNPGTPLEAFEPLLPDLDLALLMSVNPGFGGQRYLPTATERLRRLKAMRDRLNPACLIVVDGGINRDTVAEARRAGADVAVAGSALFNDKPVAENLKALRLALLG | soluble
MGSDKIHHHHHHMDSYFLGVSLESLKSLPRQTNHLRLGLAMWSHYHWQDSVYGSTTKQAERLARYATIFNTVEGNTSFYATPNAQTMMNWLRATPDDFRFTFKLPQTITHQKQLQHCQQELLQFFQVMSPLAEKTGLWKIQLPAHFGPENLPALAQFLNQVPQGLTYGVEVRHAAFFAKGEAERALNRLLMDKQVNRIIMDSRPLFALPPANEAIIDTHKKKPRVPVHAIATANTPVVRFIGQPDDACSCTTRAARR | not soluble
MRMNSQWGFKMKILIMGFEYLPVKVGGLAEALTSIAEALASLGHEVLVFTPSHGRFQGSEIGIIKAFGGKVAIKVHLEENGNLRIYRIGGGLLDHQDVYGPGWEGLIRKTVIFGKASVLLLNELLKSEDLPDVLHFHDWHTVFAGALIKKYFRIPAVFTIHRLNKSKIPAFYFHEAGLPELAPYPDLDPEHTGGYIADIVTTVSRGYLLDEWDFFRNFNGKVTYVFNGIDCSFWNENYLKGSRKERRSSILAKFGMSDGITFMFIGRFDRRQKGVDTLLRAIELLSERPEFKEMRFIIIGMGDPELENWARELEKRYDNVRVLTEMLSREFVRELYGSVDFVIIPSYFEPFGLVSLEAMCLGAIPIASSVGGLRDVIVSIDEDHVDGTGLLVKPGDPWDLANAILRMHSIAMDNEFVEKLRDNCKKRAKSFSWENSAKRYLRAYKGNIDRIFDFAMLEHHHHHH | not soluble
MHRCGESSVAGTDARIRLEGNRLFVGGPVTYDNVVEVIRTGDAAIKADDMLIDLAGVTWVDSSAVSMLLEWMRTAQTYDRRIEFINLPSNLADLIELYDVGSLIPTDKPAESV | not soluble
MGSDKIHHHHHHMLSYYGRLSSEVYDIDKPIDHSFRDVEFYIDRLNLCRGHILEPATGTGRVLVPLLEKGFKVDGFDSSKDMLNICRDNCRKKGLNPKLFEAKMESFIQDTRYDAIIVPAGTFLLLHQRADSIRALQNFHKHLCTGGRLIIDILMQTDFSTGTVSTRTWVCSNGDLITLESKVVEVDYINQYTVSHNRYEKWREGVLIQTELERFPLRWYGLEEFKLILESTGFKDIVISSDYKFGQYPSNVKDVITFEAVAIN | not soluble
MSLSSVYTMKRIWLQKDKKAYQAWHELMEKAELQTTEALDYTVGIYDDTALIASGSLSGKTIKCVAVCKKYQSENLLTQLVVHLLEKLREENQLHSFLYTKPKNEQIFQSLGFQKVVANQEVLFMEQGKPDFADYLGYLTQHKKAGPASSIVMNANPFTKGHQYLVEKAAQESPHVYVFVLSEDKSLFSKEARFAMVQKGVAHLPNVTVLSTEDYLVSSATFPTYFLKEKAPLEVAAIQATLDATLFKERIAPILEIQQRYVGEEPYSEVTAVYNQAMQQVFGQTITLTIVPRLASDGELISATKVRKAMAEGDKETLKKFLPATSYQYLVEHKKLMREGGSHHHHHH | soluble
MQVIRKPTRMLSGVTIVSIMTHPHSCPHGKCVFCPGGVDVDTPQSYYGREPTLMRAIENDYDPFHQVQSRLRQYVENGHTPSKVELIIMGGTFLSLPIDYQDWFVTYALEAMNRFPSYDKPSFVYLEDAQVKNEKAEVRCVGMTIETKPDWAKEWHADQMLRLGATKVELGVQTVYDDILKFTNRGHTVKDSIESTRILKDSGFKVVYHVMLGLPKSDPDKDLEAFKTIFSDPNFRPDMLKIYPTLVVETAPLANLWRRGLYKPYGTETLIELISEMYRYIPKWVRVMRIQRDIPANVILDGNKKGNLRELVEKKVLEKGIKINEIRFREVGMMWQHRGLLPDHTKIHLYKEVYEASEGTEIFLSFEDEKEILIGYLRLRITSNKAHRKEIDGKTAIVRELHVYGIEVPIGSWDELGFQHRGYGSKLLSEAEKIAREEFDMRKISVLSGIGAREYYAKRGYVKEGPYMSKQLI | not soluble
MVYRCTGCGQSQPKWSGQCGGCGQWNTLVEEIEAPAVGRRRAGYAGAAEGSMPVSLAEVSREDLSRVTSGLGELDRVLGGGVVPGSAILLGGDPGIGKSTLLLQTLAYLGKSARTLYVTGEESLSQVSLRAHRLGLDGHGIQALAETSLERILDTAERHKPEVLVVDSIQTVYSEALQSAPGSVGQVRECSAQLVRYAKQSSTTVFLVGHVTKEGALAGPRVLEHMVDTVLYFEGDASSRYRVVRSFKNRFGAVNELGVFAMTETGLKEVRNPSAIFLSRGDEDMPGSIVTVTREGSRPLLVEVQALVDESHLQSPRRLVVGMEMNRLAMLLAVLHRHGGVPVAAQDVFVNLVGGVRLTETAGDLAIACAVVSSFRDRPVPGEWVIFGELGLNGEIRPVPNGEERLREAAKHGFKYALVPAKNAPKQGVPGVSIIAARNLREAINALLEHHHHHH | soluble
MGSDKIHHHHHHMKFIVSSTALFSHLQAVSRVINSKNALPILDCFLFQLEDGTLSVTVSDSETTMVTSVEVNESDSNGKFAVAAKTLLDALKEIPEQPLTFDIKPDTYEITVQYQNGKYSLMGQNADEFPQSATLGDNAVRVEMEAQILLGGINRSVFATADDELRPVMNGIYFDITTEDITMVASDGHKLVRCKTLAARGNERAAFILPKKPATLLKNLLPKESGMVVIEFDERNAVFTLESYRMVCRLIEGRYPNYNSVIPQNNPHKVTVDRMQLMGALRRVSIFSSQASSLIKLRMQENQIVVSAQDIDFSTSAEETQVCQYAGAAMSIGFKSTFLIDILNNISADEVVIELADPSRAGVIIPVEQEENEDLLMLLMPMMLND | not soluble
MNLRSRLVNATERAVLFQIFKDVQNDPEKYDNAVEAICESIDYFGKFLTDSEYLTQIKPILDTQCPTKSIICFSKCLTKVSTDINTTTFRDVITMLDWLKYVVEKSLTSAICSSLKVKETDVSAVQLYREFASACSNIPEKVSNCCAKALSGEHVKYINTVKWIFKMNLVQGIQKAMLLAHDDIVTAAPFTSFYGSGGPYMKTVAEIISSGRNIDITNKDGLLVQMIEWIGSLNNFDSQWRRMMFLIFQEPTYQGIQVHESLLTTLFLISKSDQILKRCIEATDLTGTLKRVVMVKLPFQRVLKRKTIEILINFVYRTKEQFAIQLLETSVKIWSDLNYAKSAPESQERHIVRMILYLVHLFRTCSSIDWESLFLNSMDGVHCRMSMLPMYVQSGIFVNQALCKQATKHRSKTHGSDEQPPETLEENKFVSSEVGKIWFEEMTSILEHGFNSSTVKDSERVRETANEITKDDSGEEFEETNAQRLQNNKDSAAITSKNNLRLDSDDDEDFPDYQVNESEKIFKNLEIGEEPKNKVTPPAYIADAFEMLLEKEKYEVFEAAFFNITNLINRRPIGFPQIAEKLFIRILHLQNNFGTPKFKETVDEIAVACITQRPEIVPSVVRLIIAPGQGFSIKQRLLHYIHNAADGMGALDKKLEECVMAQQLRIGGPTLSIILHRTINTDYDDEDEDPHRLLVPEWRRMVDARIAANTRRIGTTREPPRAGVVNRLAQAAKYMFYPLLVLPRGENASLLGKDSDLLASLIMVASMVYVRCGVCPQIHRMSSELISYATPHRFSENAKLRTACIIAHLNVTTLLPGDLMDELFDVPALIGWFDWANSVLVNASSSQLEKDMTRQFGHSVTKHLQRYHPAVLQHQDV | not soluble
